No end group written: not given here. *: point of attachment. Dansyl = CN(C)c1cccc2c(S(=O)(=O)*)cccc12
Target: FTase (protein farnesyltransferase) (UniProt P49354)

Binder Dansyl-TKCITQ [dansyl-TKCITQ] has a Kd of 3.6 nM.

Work on Dansyl-TKCSVS [dansyl-TKCSVS] yielded a Kd of 2.1 nM.

With Dansyl-TKCVVT [dansyl-TKCVVT] the Kd was 7 nM.

In the case of Dansyl-TKCLLM [dansyl-TKCLLM], the Kd is reported as 4.7 nM.

With Dansyl-TKCGIM [dansyl-TKCGIM] the Kd was 3.6 nM.

For Dansyl-TKCSLM [dansyl-TKCSLM], the Kd was 8 nM.

Dansyl-TKCSIM [dansyl-TKCSIM] was tested, and the Kd was 6 nM.

With Dansyl-TKCCIF (cysteine pairing not given here) [dansyl-TKCCIF] the Kd was 270 nM.

Dansyl-TKCNLQ [dansyl-TKCNLQ] was tested, and the Kd was 8 nM.

Dansyl-TKCVLA [dansyl-TKCVLA] gave a Kd of 4.6 nM.

In the case of Dansyl-TKCLIT [dansyl-TKCLIT], the Kd is reported as 4.1 nM.

With Dansyl-TKCTLA [dansyl-TKCTLA] the Kd was 4.4 nM.

Binder Dansyl-TKCTII [dansyl-TKCTII] has a Kd of 4.2 nM.

In the case of Dansyl-TKCNIM [dansyl-TKCNIM], the Kd is reported as 5 nM.

With Dansyl-TKCCIL (cysteine pairing not given here) [dansyl-TKCCIL] the Kd was 300 nM.

For Dansyl-TKCKIF [dansyl-TKCKIF], the Kd was 2.5 nM.

Dansyl-TKCLVM [dansyl-TKCLVM] gave a Kd of 6 nM.

Dansyl-TKCYVM [dansyl-TKCYVM] showed a Kd of 12 nM.

Work on Dansyl-TKCKIS [dansyl-TKCKIS] yielded a Kd of 4 nM.

Dansyl-TKCRIS [dansyl-TKCRIS] was tested, and the Kd was 12 nM.

Dansyl-TKCSIS [dansyl-TKCSIS] showed a Kd of 3.4 nM.

Dansyl-TKCNLT [dansyl-TKCNLT] was tested, and the Kd was 3.7 nM.

Work on Dansyl-TKCSLC (cysteine pairing not given here) [dansyl-TKCSLC] yielded a Kd of 5 nM.

With Dansyl-TKCTLQ [dansyl-TKCTLQ] the Kd was 7 nM.

For Dansyl-TKCTLM [dansyl-TKCTLM], the Kd was 5.2 nM.

Work on Dansyl-TKCFLS [dansyl-TKCFLS] yielded a Kd of 19 nM.

Dansyl-TKCTMS [dansyl-TKCTMS] was tested, and the Kd was 6 nM.

For Dansyl-TKCAVQ [dansyl-TKCAVQ], the Kd was 13 nM.

Dansyl-TKCSLG [dansyl-TKCSLG] gave a Kd of 3.4 nM.

Dansyl-TKCVLH [dansyl-TKCVLH] gave a Kd of 14 nM.

In the case of Dansyl-TKCLTS [dansyl-TKCLTS], the Kd is reported as 5 nM.

Work on Dansyl-TKCYPD [dansyl-TKCYPD] yielded a Kd of 3.3 nM.

Dansyl-TKCSFM [dansyl-TKCSFM] was tested, and the Kd was 10 nM.

Dansyl-TKCTKF [dansyl-TKCTKF] showed a Kd of 6 nM.

Binder Dansyl-TKCIVA [dansyl-TKCIVA] has a Kd of 5 nM.
